Changes are numbered by the printed parent chain. “And” between values parts separate entries of the source, which are not always exact repeats. Equal entries are not always repeated. Blank lines part the entries; values can stand above or below the binder they belong to.
Experiments:
[1] = target: T1, human CD20 antigen (human, UniProt P11836 1-297); experiment: cell-based or functional assay
T1 sequence (looked up): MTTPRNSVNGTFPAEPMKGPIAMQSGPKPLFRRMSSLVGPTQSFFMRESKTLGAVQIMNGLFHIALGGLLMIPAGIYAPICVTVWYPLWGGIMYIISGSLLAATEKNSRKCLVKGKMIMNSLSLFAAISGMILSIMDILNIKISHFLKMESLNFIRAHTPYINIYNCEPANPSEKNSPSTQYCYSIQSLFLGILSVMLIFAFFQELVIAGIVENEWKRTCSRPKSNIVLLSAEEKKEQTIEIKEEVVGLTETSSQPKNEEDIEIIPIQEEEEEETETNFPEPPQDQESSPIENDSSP

[2] = target: T1, human CD20 antigen; experiment: Scatchard analysis on Raji cells, FITC anti human Fc secondary (Example 3)
Protocol: (§1) The reaction solution was 1% BSA-PBS solution with a cell number of 5×10⁶ cells and was injected into a 1.5 ml tube to a final volume of 100 μl. Three samples for each test antibody were prepared and four tubes to which antibody was not added were prepared as samples for background calculations.
(§2) After the detecting step, an image was digitized using image analysis software Image Quant (Amersham Bioscience) and analyzed using Excel (Microsoft). Average values for the same test antibodies were calculated and the values for background calculation samples (when only reacting a cell with a FITC-labeled secondary antibody) were subtracted from the test antibody values. The background values derived for the FITC-labeled secondary antibody binding non-specifically to cells, the PBS solution and the plate are omitted. At the same time, a standard curve was prepared by measuring the amount of fluorescence of only FITC-labeled secondary antibodies at amounts of 0, 12.5, 25, 50, 75, 100, 125, and 150 ng per 100 μl. In this manner, the number of moles of secondary antibody binding to cells was calculated. Assuming that each primary antibody and the FITC-labeled secondary antibody react at a ratio of […], the amount of cell-bound primary antibody was calculated. Primary antibody in suspension was calculated by subtracting the bound amount from the added amount. Scatchard analysis was performed using these values in order to calculate a dissociation constant Kd.

[3] = target: T1, human CD20 antigen; experiment: Scatchard analysis on Raji cells (Example 3), average over the clones of the construct
Protocol: as §1, §2

B1: chimerized 1K1791 antibody (c1791) (antibody, V domains shown)
VH: QIQLVQSGPELKKPGETVKISCKASGYTFTNFGVNWVKQAPGKGLKWMGWINTYTGEPSYADDFKGRFAFSLEASANTAYLQINNLKNDDMSTYFCTRRTNYYGTSYYYAMDYWGQGTSVTVSS
VL: STVMTQTPKFLLVSAGDRVTITCKASQSVSNDVAWYQQKPGQSPKVLIYFASNRYTGVPDRFTGSGYGTDFTFTINTVQAEDLAVYFCQQDYSSPLTFGAGTKLELK
- CDC (10 ug/ml), RAJI [1]: 99 relative, c2B8 = 100
- CDC (10 ug/ml), RC-K8 [1]: 100 relative, c2B8 = 100
- CDC (10 ug/ml), SUDHL4 [1]: 119 relative, c2B8 = 100
- CDC (10 ug/ml), WIL2NS [1]: 529 relative, c2B8 = 100

B2: humanized 1K1791 antibody as (AbbL x SdrH) (antibody, V domains shown)
VH: QIQLVQSGSELKKPGASVKVSCKASGYTFTNFGVNWVRQAPGKGLKWMGWINTYTGEPSYAQGFTGRFAFSLDASVSTAYLQISSLKAEDTATYFCTRRTNYYGTSYYYAMDYWGQGTTVTVSS
VL: STVMTQSPDSLAVSLGERATINCKSSQSVSNDVAWYQQKPGQSPKVLIYFASNRYSGVPDRFSGSGYGTDFTLTISSLQAEDVAVYFCQQDYSSPLTFGAGTKLEIK
notes: Kappa, gamma 1 construct; also called hz1791 as; As001
- Kd [2]: 11.9 nM and 11.5 nM
- Kd [3]: 11.7 nM

B6: humanized 1K1791 antibody af (AbbL x FraH) (antibody, V domains shown)
VH: B2 VH with R38K, Q62D, G63D, T65K, V76A, T91M
VL: B2 VL
notes: Kappa, gamma 1 construct; also called hz1791 af; Af021
- Kd [2]: 6.84 nM and 8.67 nM
- Kd [3]: 7.76 nM

B11: humanized 1K1791 antibody aa (AbbL x AbbH) (antibody, V domains shown)
VH: B2 VH with K46E, A69V
VL: B2 VL
notes: Whole humanized antibody from CHO cells; construct name ends kg1 (kappa, gamma 1); The two clones are producer clones of one construct; also called hz1791 aa; Aa008
- Kd [2]: 11.7 nM and 9.96 nM
- Kd [3]: 10.8 nM

B12: humanized 1K1791 antibody av (AbbL x VenH) (antibody, V domains shown)
VH: B2 VH with S9P, V20I, R38K, Q62D, G63D, T65K, A92S
VL: B2 VL
notes: Kappa, gamma 1 construct; also called hz1791 av; Av004
- Kd [2]: 10.7 nM and 9.17 nM
- Kd [3]: 9.94 nM

Next, values leading:

- Kd [2]: 7.14 nM and 7.01 nM
- Kd [3]: 7.07 nM
B3: humanized 1K1791 antibody vv (VenL x VenH) (antibody, V domains shown)
VH: B2 VH with S9P, V20I, R38K, Q62D, G63D, T65K, A92S
VL: B2 VL with A19V, S25A, S56T, L73F, L78V, I106L
notes: Kappa, gamma 1 construct; also called hz1791 vv; Vv018

- Kd [2]: 14.3 nM and 10.8 nM
- Kd [3]: 12.6 nM
B4: humanized 1K1791 antibody sv (SdrL x VenH) (antibody, V domains shown)
VH: B2 VH with S9P, V20I, R38K, Q62D, G63D, T65K, A92S
VL: B2 VL with V29N
notes: Kappa, gamma 1 construct; also called hz1791 sv; Sv015

- Kd [2]: 13.1 nM and 7.5 nM
- Kd [3]: 10.3 nM
B5: humanized 1K1791 antibody va (VenL x AbbH) (antibody, V domains shown)
VH: B2 VH with K46E, A69V
VL: B2 VL with A19V, S25A, S56T, L73F, L78V, I106L
notes: Kappa, gamma 1 construct; also called hz1791 va; Va016

- Kd [2]: 14.7 nM
- Kd [3]: 14.7 nM
B7: humanized 1K1791 antibody sa (SdrL x AbbH) (antibody, V domains shown)
VH: B2 VH with K46E, A69V
VL: B2 VL with V29N
notes: Kappa, gamma 1 construct; also called hz1791 sa; Sa023

- Kd [2]: 11.3 nM and 8.83 nM
- Kd [3]: 10.1 nM
B8: humanized 1K1791 antibody fa (FraL x AbbH) (antibody, V domains shown)
VH: B2 VH with K46E, A69V
VL: B2 VL with D9S, S10F, A12S, V13A, L15V, E17D, A19V, N22T, S25A, S56T
notes: Kappa, gamma 1 construct; also called hz1791 fa; Fa007

- Kd [2]: 7.78 nM and 7.79 nM
- Kd [3]: 7.78 nM
B9: humanized 1K1791 antibody vf (VenL x FraH) (antibody, V domains shown)
VH: B2 VH with R38K, Q62D, G63D, T65K, V76A, T91M
VL: B2 VL with A19V, S25A, S56T, L73F, L78V, I106L
notes: Kappa, gamma 1 construct; also called hz1791 vf; Vf029

- Kd [2]: 8.8 nM and 11.9 nM
- Kd [3]: 10.3 nM
B10: humanized 1K1791 antibody vs (VenL x SdrH) (antibody, V domains shown)
VH: B2 VH
VL: B2 VL with A19V, S25A, S56T, L73F, L78V, I106L
notes: Kappa, gamma 1 construct; also called hz1791 vs; Vs006

- Kd [2]: 6.33 nM and 11.1 nM
- Kd [3]: 8.71 nM
B13: humanized 1K1791 antibody fs (FraL x SdrH) (antibody, V domains shown)
VH: B2 VH
VL: B2 VL with D9S, S10F, A12S, V13A, L15V, E17D, A19V, N22T, S25A, S56T
notes: Kappa, gamma 1 construct; also called hz1791 fs; Fs007

Reference: US20090203886A1 (OSAKA UNIVERSITY, published 2009)
